Target: T1, human CD94 expressed on cells (human primary NK cells in PBMCs; HEK cells expressing human CD94) (human, UniProt Q13241 1-179)
T1 construct: whole, on cells; also called KLRD1; Natural killer cells antigen CD94
T1 sequence (looked up): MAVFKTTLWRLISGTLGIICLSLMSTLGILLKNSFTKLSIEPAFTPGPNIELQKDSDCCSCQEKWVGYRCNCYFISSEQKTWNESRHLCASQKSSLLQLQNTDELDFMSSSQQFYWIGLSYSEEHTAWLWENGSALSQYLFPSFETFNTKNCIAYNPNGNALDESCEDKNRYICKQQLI
Assay: flow cytometry titration (100 nM to 0.046 nM) on primary NK cells in healthy donor PBMCs; human primary NK cells, flow cytometry titration
Experimental: Peripheral blood monocuclear cells (PBMCs) of healthy donor HD-40 were used for antibody staining. 18H3 antibody was titrated from 100 nM to 0.046 nM in 1:3 dilutions and incubated with PBMCs. CD3 and CD56 antibodies were used to identify NK cells on the flow scatter. 18H3 antibody binding on […] and CD56 bright NK cells was used to assess affinity of 18H3. Titration curves and EC50 were generated using Graphpad Prism. […] Human IgG1 isotype control with secondary antibody (hIgG1) and goat (Fab)2 fragment anti-human Fcy-specific secondary antibody AF647 only (2ndary Ab) were used as controls.
Healthy donor PBMCs were seeded in 96 well plates at a density of 100,000 cells per well, incubated with human Fc block (Biolegend) and cell viability dye (Thermo Fisher) for 30 minutes on ice and protected from light. […] After incubation, the cells received a final wash in FACS buffer before quantification on the Cytoflex (Beckman Coulter). All data acquisition and fluorescence compensation were performed using CytoFlex (Beckman Coulter, Atlanta, GA). […] CD94 expression was then quantified on the CD3−CD56+NK cell population. […]
The affinity of the antibody clones was also assessed by flow cytometry analysis.

B1: anti-CD94 antibody clone 18H3 (antibody, V domains shown)
VH: EVQLVQSGAEVKKPGESLKISCKGSGYRFTSYWIGWVRQMPGKGLEWMGIIYPGDSDTRYSPSFQGQVIISADKSITTAFLQWSSLKASDTAMYYCARPFDYGGSPGYFDYWGQGTLVTVSS
VL: DIQMTQSPSTLSASVGDRVTITCRASQSIRSWLAWYQQKPGKAPKLLIYKASSLESGVPSRFSGSGSGTEFTLTISSLQPDDFATYYCQQYNTFWTFGQGTKVEIK
notes: also called 18H3-AF647
EC50: 2.6 nM

Reference: patent publication US20250197505A1 (DREN BIO, published 2025)
